# From patent publication US20250179155A1 (VANDERBILT UNIVERSITY, published 2025)
# Where a chain is given by its changes, count along the chain named.
# B1: A1C4 (VHH)
# VHH: QVQLQESGGGLVQPGGSLRLSCAASGRSFSINTMGWYRQAPGNKRDMVATITTGGNTNYADSVKGRFTISRDNAKNTVYLQMNSLKPEDTAVYYCRTVVVTPYPDEFEYDYWGQGTQVTVSS
# B2: A1C11 (VHH)
# VHH: QVQLQESGGGLVQAGDSLRLSCAASGRTFSRYAMGWFRQAPGKEREFVAAISWSGGTTYYADSVKGRFTISRDNAKNTVYLQMNSLKPEDTAVYYCAAGLFRGDLTRFKLDEYDYRGQGTQVTVSS
# B3: A2C2 (VHH)
# VHH: B2 VHH with A14T, D16G, A23T, P41S, W53Y, A61S, N77S, Y80S, K109T
# B4: A1D8 (VHH)
# VHH: B2 VHH with D16G, A23V, R27G, M34L, W53Y, G56A, Y80F, L100F, R107K
# B5: A2F12 (VHH)
# VHH: B2 VHH with D16G, G56D, Y60D, I70V, R107K, K109E
# B6: A1H5 (VHH)
# VHH: QVQLQESGGGLVQPGGSLRLSCAASGSIFSINAMGWYRQAPGKQRELVASITSGGSTNYADSVKGRFTISRDGAKNTVYLQMNSLKPEDTAVYYCHVPWTDDFGWAVKDYWGQGTQVTVSS
# B7: A2H4 (VHH)
# VHH: B6 VHH with S50K, S56T, H96N, V97L, D101S, F103L
# B8: A1D1 (VHH)
# VHH: QVQLQESGGGLVQAGGSLRLSCAASGRTFSTHTMAWFRQAPGKEREFVTGIRWSDGMTIYADSVKGRFTISRDKATNTMYLEMNTLKPDDTAVYYCGAGPTMYHPTYWGQGTQVTVSS
# B9: A2B5 (VHH)
# VHH: QVQLQESGGGLVQAGGSLRLSCTPSERTFSAYTMAWYRQPPGKEREFAAGIKWSGSGGITLYADSVKGRFTISGDNAKSTVYLEMNSLKPEDTAVYYCTAGPTVYNPHYWGQGTQVTVSS
# B10: A2A6 (VHH)
# VHH: QVQLQESGGGLVQAGGSLRLSCADSGRTFSRYEMGWSRQAPGKEREFVAVINRLGRSTYYADSVKGRFTISRDNAKNTVYLQMNSLKPEDTAVYYCAAGVRLNLPQIPDVIDFWGQGTQVTVSS
# B11: A1G6 (VHH)
# VHH: QVQLQESGGGLVQPGGSLRLSCAASGRAFSSYAMGWFRQTPGKEREFVAVISWSGGSTYYADSVKGRFTISRDNTKNMVYLQMMSLKPEDTAVYYCAADFSQPLLATVPDDYDYWGQGTQVTVSS
# B12: A2H9 (VHH)
# VHH: QVQLQESGGGLVQAGGSLRLSCAASGRASSTYVMAWFRQAPGKEREFVAADTWGGAGTYYAPSVKGRFTISRDNAKNMLYLQMNSLKPEDTAAYYCAAGQGRSVTLFQPSTYDYWGQGTQVTVSS
# B13: A2F10 (VHH)
# VHH: QVQLQESGGGLVQPGGSLRLSCAASGRSFSSGAMGWFRQAPGKEREFVGVGWSGGLIDYAASVRGRFTITRDKAKNTVYLRMDSLRPEDTAVYYCAINSANSCAGYDCHDKPQVYDYWGQGTQVTVSS
# B14: A1C1 (VHH)
# VHH: QVQLQESGGGLVQAGGSLRLSCAASGGTFSSYSVGWFRQAPGLEREFVGMITWRGITYFEDFVKDRFNISRDNAKNTVYLQMNSLKPEDTAVYSCAARDRRAARIQEFDYWGQGTQVTVSS
# B15: A2B10 (VHH)
# VHH: QVQLQESGGGTVQPGGSLRLSCAASGRDFSSGAMGWFRQTPGNEREFVGVGWSGGLIDYSDSVKGRFTITRDKLKNEVYLRMDRLKPEDTAVYFCAVNSANSCAGYDCHDKPQTYNYWGQGTQVTVSS
# B16: A1H1 (VHH)
# VHH: QVQLQESGGGLVQAGGSLRLSCAASGGTFSKTSVGWFRQAPGLEREFVALITWSGNTYFVDSVRERFAISRDNAENTVYLQMNSLEPEDTAVYYCAARERTAARIQEFDYWGQGTQVTVSS
# B17: A2A8 (VHH)
# VHH: QVQLQESGGGLVQAGDSLRLSCTASGGTFSSYSIGWFRQAPGLEREFVALITWRNNTYLGDSVRERFAISRDNAKNTVYLQMNSLKPEDTAVYSCAARERRVARIQEFDYWGQGTQVTVSS
# B18: B2C5 (VHH)
# VHH: QVQLQESGGGLVQPGGSLRLSCAASGLTSGTYVMSWFRQAPGKEREFVAAIRDAGGIRNYADSVKGRFTISRDAAKNMIFLQMNSLKPEDTAVYYCKFLRLPESLAYWGQGTQVTVSS
# B19: B0B11 (VHH)
# VHH: QVQLQESGGGLVQPGGSLRLSCATSGFYFPNYAMSWHRQAPGQERELVARITSAGGSTDYADSVKGRFTISRDNSKNTVYLQMNGLISEDTAVYYCNADPSYGTRYWGQGTQVTVSS
# B20: B1E7 (VHH)
# VHH: QVQLQESGGGLVQPGGSLRLSCAASGSLRSGYVMSWHRQAPGKQRELVASITTGDITQYGASVKGRFTISRDETKNMGWLQMNSLLPEDTAVYYCKITELPTVSVYWGQGTQVTVSS
# B21: B2C11 (VHH)
# VHH: QVQLQESGGGLVHVGESLTLSCVAPGSIFGVNTMAWYRQAPGKQRELVAAISPGGYTNYAEFVKGRFGISRDKAKNTVYLQMNDLKPEDTAVYYCNYRSGTSRPNTNWGQGTQVTVSS
# B22: B0D11 (VHH)
# VHH: QVQLQESGGGLAQPGGSLRLSCAASGFTFSHAVMSWFRQAPGKERELVAGWRSAGGITNYADSVKGRFTISGDNAKDVVYLQMNSLKPEDTAVYYCKAFVVGSAYWGQGTQVTVSS
# B23: B0C10 (VHH)
# VHH: QVQLQESGGGLVQPGGSLRLSCTASGFTRKHYTIGWFRQAPGKEREGVSCITTPDNSTYYKDSVKGRFTISRDNAKNTVYLQMNNVKPEDTAVYYCGASALGGSSCAQSSSVLHRLFQWGQGTQVTVSS
# B24: B0B7 (VHH)
# VHH: QVQLQESGGGSVQPGGSLRLSCAASGSIYGMMMMAWYRQRTGEQRELVANFTRDGSTNYVDSVKGRFTISRDNDKKMVYLQMKDLKPEDTAVYYCNIQRYWGKGTAVTVSS
# B25: B0A9 (VHH)
# VHH: QVQLQESGGGLVQPGGSLRLTCTSSTSINIYPYMGWYRQAPGKQRERVATVNRDGNTNYLDSVKGRFTITRDDAKKTICLQMNNLEPEDTAVYYCNNFGSSSWGQGTQVTVSS
# B26: B0E2 (VHH)
# VHH: QVQLQESGGGLVLPGGSLRLSCAASGTVFKIYVMGWYRQAPGKQRELVATISNGGTPNYADSVKGRFTISGDRAKNTVFLQMSSLNVEDTAVYYCNRRQLEGRQSEDYWGQGTQVTVSS
# B27: B1C10 (VHH)
# VHH: QVQLQESGGGLVQPGGSLRLSCLASGLSLSTDVMSWFRQAPGKERELVAGIRSAGWITNYADSVKGRFTISVDSAKNTVYLQMNSLKPEDTAVYYCKVLRLPDGLAFWGQGTQVTVSS
# Target: T1, TcdA-GTD (TcdA1-542) (Clostridioides difficile strain VPI10463, UniProt P16154 1-542)
# T1 construct: range 1-542; also called TcdA glucosyltransferase domain
# Experiment: ELISA-like screen of clone lysates on isolated domains
# T1 sequence (P16154 1-542 limits assumed): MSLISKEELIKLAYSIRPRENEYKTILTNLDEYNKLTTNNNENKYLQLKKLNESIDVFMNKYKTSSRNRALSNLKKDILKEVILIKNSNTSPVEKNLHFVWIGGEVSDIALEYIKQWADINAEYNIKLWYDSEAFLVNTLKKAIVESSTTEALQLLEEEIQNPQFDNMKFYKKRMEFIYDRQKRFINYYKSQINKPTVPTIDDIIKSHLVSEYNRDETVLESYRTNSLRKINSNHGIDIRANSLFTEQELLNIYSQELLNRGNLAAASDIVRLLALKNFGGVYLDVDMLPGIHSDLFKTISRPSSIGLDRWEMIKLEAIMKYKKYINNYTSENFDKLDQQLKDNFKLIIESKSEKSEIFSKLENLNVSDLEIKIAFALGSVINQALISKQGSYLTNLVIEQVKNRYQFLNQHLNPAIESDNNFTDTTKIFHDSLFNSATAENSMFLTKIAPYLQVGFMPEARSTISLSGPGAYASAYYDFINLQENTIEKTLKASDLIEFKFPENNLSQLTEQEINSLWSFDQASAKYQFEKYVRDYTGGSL
row,Binder,binding result
1,B1,no binding
2,B2,no binding
3,B3,no binding
4,B4,no binding
5,B5,no binding
6,B6,no binding
7,B7,no binding
8,B8,no binding
9,B9,no binding
10,B10,no binding
11,B11,no binding
12,B12,no binding

# Target: full-length TcdA (TcdA1-2710) (Clostridioides difficile strain VPI10463, UniProt P16154 1-2710)
# Experiment: cell-based or functional assay
Binder,"EC50 (nM), TcdA neutralization, T84 cells [nM]","EC50, TcdA neutralization, T84 cells [nM]","EC50 (nM), TcdA neutralization, Vero cells [nM]"
B13,455,,
B14,,> 10000,
B1,60.3,,2.5
B15,678,,
B16,,> 10000,
B2,10.4,,< 1
B3,2.4,,< 1
B4,2.1,,< 1
B5,1.1,,< 1
B6,,,15.7
B7,838,,40.9
B9,,,11.1
B17,,> 10000,
B10,91,,1
B11,,,6.4
B12,105,,8.7

# Target: full-length TcdB (TcdB1-2366), VPI10463 (Clostridioides difficile strain VPI10463, UniProt P18177 1-2366)
# Experiment: cell-based or functional assay
# Chain of full-length TcdB (TcdB1-2366), VPI10463 (P18177 whole entry): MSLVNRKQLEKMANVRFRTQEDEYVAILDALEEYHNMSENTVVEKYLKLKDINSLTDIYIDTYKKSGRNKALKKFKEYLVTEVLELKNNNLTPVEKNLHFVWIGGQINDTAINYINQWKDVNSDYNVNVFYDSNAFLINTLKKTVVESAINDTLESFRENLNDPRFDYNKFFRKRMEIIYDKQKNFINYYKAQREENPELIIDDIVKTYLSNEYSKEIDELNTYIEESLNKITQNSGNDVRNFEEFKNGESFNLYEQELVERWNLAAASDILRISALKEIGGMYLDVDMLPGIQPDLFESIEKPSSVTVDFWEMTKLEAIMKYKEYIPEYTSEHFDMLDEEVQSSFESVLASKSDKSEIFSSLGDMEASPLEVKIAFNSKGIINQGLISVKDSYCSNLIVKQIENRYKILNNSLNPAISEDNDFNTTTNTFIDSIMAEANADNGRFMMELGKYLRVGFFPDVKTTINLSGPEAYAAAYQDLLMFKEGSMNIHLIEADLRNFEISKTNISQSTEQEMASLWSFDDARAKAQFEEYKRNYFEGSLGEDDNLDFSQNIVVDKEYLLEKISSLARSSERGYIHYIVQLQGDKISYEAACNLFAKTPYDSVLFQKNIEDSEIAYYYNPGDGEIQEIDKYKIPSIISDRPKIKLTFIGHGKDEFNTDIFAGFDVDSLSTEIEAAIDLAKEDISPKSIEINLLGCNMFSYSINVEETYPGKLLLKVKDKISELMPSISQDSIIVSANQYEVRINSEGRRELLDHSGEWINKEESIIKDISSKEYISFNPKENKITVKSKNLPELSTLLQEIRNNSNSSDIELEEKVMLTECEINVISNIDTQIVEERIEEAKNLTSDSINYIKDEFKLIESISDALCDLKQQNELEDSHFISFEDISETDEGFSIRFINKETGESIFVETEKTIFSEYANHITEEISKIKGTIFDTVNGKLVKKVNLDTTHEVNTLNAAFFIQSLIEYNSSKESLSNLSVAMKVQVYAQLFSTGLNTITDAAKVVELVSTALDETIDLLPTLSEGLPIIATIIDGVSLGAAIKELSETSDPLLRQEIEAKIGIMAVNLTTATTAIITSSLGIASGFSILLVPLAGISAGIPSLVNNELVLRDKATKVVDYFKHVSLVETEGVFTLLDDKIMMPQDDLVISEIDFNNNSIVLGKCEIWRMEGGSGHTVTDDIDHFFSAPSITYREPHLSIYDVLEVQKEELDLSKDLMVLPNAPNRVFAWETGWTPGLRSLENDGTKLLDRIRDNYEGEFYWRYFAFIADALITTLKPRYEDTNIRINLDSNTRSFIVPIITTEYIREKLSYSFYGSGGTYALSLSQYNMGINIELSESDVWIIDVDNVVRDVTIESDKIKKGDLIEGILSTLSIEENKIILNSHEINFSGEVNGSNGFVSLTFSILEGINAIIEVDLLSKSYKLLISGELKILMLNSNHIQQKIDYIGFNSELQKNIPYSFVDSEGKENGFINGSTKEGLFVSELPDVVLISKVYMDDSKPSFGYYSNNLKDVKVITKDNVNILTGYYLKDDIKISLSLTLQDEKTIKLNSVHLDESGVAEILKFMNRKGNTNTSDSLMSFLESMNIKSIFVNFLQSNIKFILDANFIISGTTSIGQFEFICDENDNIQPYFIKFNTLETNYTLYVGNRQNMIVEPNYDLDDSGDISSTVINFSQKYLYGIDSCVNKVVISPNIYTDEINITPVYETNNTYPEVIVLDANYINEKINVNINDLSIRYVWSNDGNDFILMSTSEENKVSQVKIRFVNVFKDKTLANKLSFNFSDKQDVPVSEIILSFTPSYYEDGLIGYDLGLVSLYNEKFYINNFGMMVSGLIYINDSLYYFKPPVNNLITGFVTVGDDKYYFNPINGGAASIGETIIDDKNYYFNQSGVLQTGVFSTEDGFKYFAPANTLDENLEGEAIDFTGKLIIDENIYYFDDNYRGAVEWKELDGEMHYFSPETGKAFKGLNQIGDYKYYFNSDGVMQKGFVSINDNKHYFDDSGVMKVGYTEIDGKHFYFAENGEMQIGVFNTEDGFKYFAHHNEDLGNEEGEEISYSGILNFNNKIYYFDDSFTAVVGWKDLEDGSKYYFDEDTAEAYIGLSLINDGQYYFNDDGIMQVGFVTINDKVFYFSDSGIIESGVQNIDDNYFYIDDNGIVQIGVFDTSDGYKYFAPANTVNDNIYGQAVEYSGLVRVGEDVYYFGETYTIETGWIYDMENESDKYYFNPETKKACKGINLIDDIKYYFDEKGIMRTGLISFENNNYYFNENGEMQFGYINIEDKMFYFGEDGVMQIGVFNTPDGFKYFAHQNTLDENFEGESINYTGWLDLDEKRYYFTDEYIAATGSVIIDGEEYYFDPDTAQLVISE
Binder,"EC50 (nM), TcdB neutralization, Vero cells [nM]","EC50 (nM), TcdB neutralization, Caco-2 cells [nM]"
B18,< 1,
B19,350,161
B20,10,
B21,< 1,
B22,176,111
B23,1.3,< 1
B24,< 1,
B25,12.9,1.3
B26,28,< 1
B27,2.2,
